Columns and labels:
Shp2 = Shp2 (UniProt Q06124); experiment: co-IP, anti-β4 IP, Shp2 blot; conditions: reference: wild-type β4; sites Y1257,Y1494
[1] = target: Shp2 N-terminal SH2-containing domain (UniProt Q06124); experiment: far-Western of β4 IP with GST-Shp2; conditions: reference: wild-type β4

β4 integrin (from UniProt P16144-2) double mutant Y1257F/Y1494F
binding against the reference (Shp2): weaker

β4 integrin (from UniProt P16144-2) β4-Y1440F
binding against the reference ([1]; sites Y1440): weaker

β4 integrin (from UniProt P16144-2) β4-ΔShp2D (Y1257F, Y1494F)
binding against the reference ([1]; sites Y1257,Y1494): weaker
